Reference: patent publication US20140296500, “Methods and Compositions of Nucleic Acid Ligands for Detection of Clinical Analytes Related to Human Health” (OTC BIOTECHNOLOGIES, LLC, published 2014)

T1: CTx 8-AA peptide (EKAHDGGR) (Homo sapiens, UniProt P02452 P02452:1207-1214)
T1 chain: EKAHDGGR

B1: hGH aptamer SEQ 338 (ssDNA)
DNA: ATCCGTCACACCTGCTCTTGGGTGAATCAATTGTTCGTACTCCACGTGATTCTGTGGTGTTGGCTCCCGTAT
B2: hGH aptamer SEQ 377 (ssDNA)
DNA: ATACGGGAGCCAACACCACATGACGGGTGACTAAAAGACGAAATCTCCCAATTAAGAGCAGGTGTGACGGAT
B3: hGH aptamer SEQ 343 (ssDNA)
DNA: ATACGGGAGCCAACACCATAAGCAGAGAACTACAAGACGATCCCATATTCCAAAGAGCAGGTGTGACGGAT
B4: hGH aptamer SEQ 348 (ssDNA)
DNA: ATCCGTCACACCTGCTCTAGGATTTTTGTTATGTCGGCCACGATGGGGACCCCGTGGTGTTGGCTCCCGTAT
B5: hGH aptamer SEQ 379 (ssDNA)
DNA: ATACGGGAGCCAACACCACCTGAGCGCCGGCAGCACTCACTATTTGTCCCCGCAAGAGCAGGTGTGACGGAT
B6: hGH aptamer SEQ 388 (ssDNA)
DNA: ATCCGTCACACCTGCTCTAAAACATGGGCCCAATTAGGCGTGATCCAACCCGTCTGGTGTTGGCTCCCGTAT
B7: hGH aptamer SEQ 336 (ssDNA)
DNA: ATCCGTCACACCTGCTCTGGGGTGTATCCTTTTATGGATCTGCGAGAATAAGTCTGGTGTTGGCTCCCGTAT
B8: hGH aptamer SEQ 345 (ssDNA)
DNA: ATACGGGAGCCAACACCAGGTTGGCGTCAAAAGAAATAAGGGATATACATTAGAGAGCAGGTGTGACGGAT

Key:
[1] = target: T2, Recombinant human growth hormone (r-hGH) (Homo sapiens, UniProt P01241 P01241:27-217); test: ELONA; binds r-hGH better than natural hGH; settings: tags: >95% pure research grade; label: 5'-biotin
Method: FIGS. 15A-15D show four examples of aptamers from the SEQ ID NOs 325-526 that bind recombinant human growth hormone (r-hGH; >95% pure research grade) better than the natural form of hGH or somatotropin in ELISA-like assays to help discriminate the artificial form of hGH in potential drug or doping tests for athletes, or to monitor serum levels of exogendus doses of r-hGH administered to children with growth deficits. The ELISA-like assays were conducted with the named aptamers (SEQ ID NOs 336, 338, 343 and 345) instead of antibodies in each case and absorbances were red at 405 nm with an automated microplate reader after a 15 minute development time in the presence of ABTS substrate as is standard in the diagnostics industry.

[2] = target: T2, Recombinant human growth hormone (r-hGH); test: ELONA; binds r-hGH better than natural hGH; settings: tags: >95% pure research grade; label: 5'-biotin; remark: listed apart in the source
Method: FIGS. 16A-16D show four more examples of aptamers (from the SEQ ID NOs 325-526) that bind recombinant human growth hormone (“r-hGH”) better than the natural form of hGH or somatotropin to help discriminate the artificial form in potential drug or doping tests for atheletes and growth-challenged children. The ELISA-like assays were conducted with the named aptamers (SEQ ID NOs 348, 377, 379 and 388) instead of antibodies in each case and absorbances were red at 405 nm with an automated microplate reader after a 15 minute development time in the presence of ABTS substrate as is standard in the diagnostics industry.

[3] = target: T3, CTx peptide (C-telopeptide of human type I bone collagen, 26 AA …) (Homo sapiens, UniProt P02452 P02452:1193-1218); test: FRET beacon; LOD 1 ng/ml; 0.5 M NaCl, 10 mM Tris-HCl, 1 mM MgCl2, pH 7.5-7.6, RT; settings: label: 5'-TYE665, 3'-Iowa Black RQ
Method: Generally, the aptamer beacons or competitive FRET-aptamer complexes are then diluted to a final concentration of 1-5 μg/ml in 1×BB and equally dispensed to polystyrene or methacrylate cuvettes in which 1 ml of unlabeled target at various concentrations in 1×BB, PBS or diluted blood, plasma, serum, saliva, aspirate or urine has been added already. Cuvettes are gently mixed for 15 to 20 minutes at RT prior to reading their fluorescence in the homogeneous beacon or competitive-displacement FRET assay formats using a spectrofluorometer having gratings to vary the excitation wavelength and emission scanning ability or a stationary, handheld or otherwise portable fluorometer having a more restricted or fixed excitation and emission optical filter set with a range of wavelengths for excitation and emission.
FIGS. 3A-3F show how each of the aptamer beacons derived and defined from FIG. 2 behaved as a function of decreasing CTx peptide concentration (serial two-fold dilutions beginning with 100 micrograms per ml and ending with zero CTx peptide) in 1× binding buffer (1×BB; 0.5 M NaCl, 10 mM Tris-HCl, pH 7.5-7.6, 1 mM MgCl₂). In the figures “h” means hour or O'clock so that 2 h refers to the 2 O'clock loop from FIG. 2, while F means forward-primed and R means reverse-primed by reference to FIG. 2 as well. […]

[4] = target: Bovine serum albumin (BSA) (Bos taurus, UniProt P02769 P02769:25-607); test: FRET beacon; unexpected cross-reactivity with BSA; settings: label: 5'-TYE665, 3'-Iowa Black RQ
[5] = target: T1, CTx 8-AA peptide (EKAHDGGR); test: FRET beacon specificity; no response with 8-AA segment; settings: label: 5'-TYE665, 3'-Iowa Black RQ
[6] = target: T3, CTx peptide (C-telopeptide of human …); test: FRET beacon; almost as good as 15-base version, slightly higher background; settings: label: 5'-TYE665, 3'-Iowa Black RQ
Method: Cuvettes are gently mixed for 15 to 20 minutes at RT prior to reading their fluorescence in the homogeneous beacon or competitive-displacement FRET assay formats using a spectrofluorometer having gratings to vary the excitation wavelength and emission scanning ability or a stationary, handheld or otherwise portable fluorometer having a more restricted or fixed excitation and emission optical filter set with a range of wavelengths for excitation and emission.
FIGS. 3A-3F show how each of the aptamer beacons derived and defined from FIG. 2 behaved as a function of decreasing CTx peptide concentration (serial two-fold dilutions beginning with 100 micrograms per ml and ending with zero CTx peptide) in 1× binding buffer (1×BB; 0.5 M NaCl, 10 mM Tris-HCl, pH 7.5-7.6, 1 mM MgCl₂). In the figures “h” means hour or O'clock so that 2 h refers to the 2 O'clock loop from FIG. 2, while F means forward-primed and R means reverse-primed by reference to FIG. 2 as well. […] The CTx 2R-2h loop was optimal for FRET-based detection because it gives the greatest spread or separation for various two-fold serial dilutions of the 26-AA CTx peptide beginning at 100 μg/ml. The CTx 2F-10 h loop was also noteworthy, but could not discriminate many of the different CTx concentrations. […]

T2 sequence (P01241 27-217, one chain of several): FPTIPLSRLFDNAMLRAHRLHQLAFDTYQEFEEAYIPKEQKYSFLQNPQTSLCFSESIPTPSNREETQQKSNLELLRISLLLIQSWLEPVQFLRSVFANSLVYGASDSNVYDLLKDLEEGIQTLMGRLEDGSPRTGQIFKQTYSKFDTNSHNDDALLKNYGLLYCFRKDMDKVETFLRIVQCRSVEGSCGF
T3 sequence (P02452 1193-1218, one chain of several): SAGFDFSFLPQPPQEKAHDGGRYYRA
Sequence of Bovine serum albumin (BSA) (P02769 25-607, one chain of several): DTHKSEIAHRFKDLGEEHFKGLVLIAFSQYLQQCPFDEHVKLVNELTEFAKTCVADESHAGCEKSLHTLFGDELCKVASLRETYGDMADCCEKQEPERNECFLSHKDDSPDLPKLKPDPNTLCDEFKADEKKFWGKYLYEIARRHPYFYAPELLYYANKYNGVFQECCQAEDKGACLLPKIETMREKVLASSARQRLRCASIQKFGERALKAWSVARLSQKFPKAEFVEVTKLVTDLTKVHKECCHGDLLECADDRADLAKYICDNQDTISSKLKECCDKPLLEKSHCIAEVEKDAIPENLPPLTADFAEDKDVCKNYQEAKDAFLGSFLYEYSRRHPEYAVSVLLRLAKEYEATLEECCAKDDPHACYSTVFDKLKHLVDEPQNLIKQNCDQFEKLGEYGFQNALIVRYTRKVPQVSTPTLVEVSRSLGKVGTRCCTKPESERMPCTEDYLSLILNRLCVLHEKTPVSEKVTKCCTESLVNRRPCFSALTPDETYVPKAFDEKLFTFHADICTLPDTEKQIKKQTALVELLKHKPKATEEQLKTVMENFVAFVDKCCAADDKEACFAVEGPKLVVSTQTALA

Binder | binding result [1] | binding result [2] | also measured
B1 | binds | – | –
B2 | – | binds | –
B3 | binds | – | –
GGTGGTGTTGGCTCC (ssDNA) [CTx 2R-2h 15-base beacon] | – | – | binding result [3]: binds; binding result [4]: binds; binding result [5]: no binding
B4 | – | binds | –
B5 | – | binds | –
GTGGTGTTGGCTC (ssDNA) [CTx 2R-2h 13-base beacon] | – | – | binding result [6]: binds
B6 | – | binds | –
B7 | binds | – | –
B8 | binds | – | –
